Measurements published in article PMC8177864.
Like-named read-outs stand apart in the source and are kept apart here.

What was measured:
androgen receptor (rAR) [1] = molecular target: T1, androgen receptor (rAR) (rat, UniProt P15207 1-902); experiment: EMSA
androgen receptor (rAR) [2] = molecular target: T1, androgen receptor (rAR); experiment: EMSA; remark: listed apart in the source

T1 sequence (P15207 whole entry S389L): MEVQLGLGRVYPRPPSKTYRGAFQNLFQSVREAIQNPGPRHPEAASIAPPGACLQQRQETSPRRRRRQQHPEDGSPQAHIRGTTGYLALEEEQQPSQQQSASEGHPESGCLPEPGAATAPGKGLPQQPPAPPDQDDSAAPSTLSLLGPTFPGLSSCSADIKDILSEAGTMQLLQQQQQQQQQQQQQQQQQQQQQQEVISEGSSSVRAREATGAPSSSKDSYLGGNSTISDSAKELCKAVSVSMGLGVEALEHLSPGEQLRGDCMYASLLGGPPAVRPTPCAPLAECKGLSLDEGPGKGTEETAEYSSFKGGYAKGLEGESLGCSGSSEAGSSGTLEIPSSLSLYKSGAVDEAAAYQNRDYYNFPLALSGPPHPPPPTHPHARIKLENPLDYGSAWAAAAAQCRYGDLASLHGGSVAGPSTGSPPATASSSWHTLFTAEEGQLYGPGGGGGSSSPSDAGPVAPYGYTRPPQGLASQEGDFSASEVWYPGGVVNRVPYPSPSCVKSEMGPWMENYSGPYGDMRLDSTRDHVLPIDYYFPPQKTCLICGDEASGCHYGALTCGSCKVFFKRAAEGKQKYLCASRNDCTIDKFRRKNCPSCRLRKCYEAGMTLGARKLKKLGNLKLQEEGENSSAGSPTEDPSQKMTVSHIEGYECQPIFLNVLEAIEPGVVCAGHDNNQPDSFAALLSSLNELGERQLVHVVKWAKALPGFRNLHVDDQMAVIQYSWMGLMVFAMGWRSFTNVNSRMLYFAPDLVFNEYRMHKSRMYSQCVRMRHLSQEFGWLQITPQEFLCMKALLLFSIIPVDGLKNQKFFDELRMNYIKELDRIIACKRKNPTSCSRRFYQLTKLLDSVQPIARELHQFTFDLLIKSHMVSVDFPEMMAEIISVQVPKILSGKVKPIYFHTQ

B1: HRE consensus (dsDNA)
DNA 1: ACGGGTGGAACGCGGTGTTCTTTTGGCACG
DNA 2: CGTGCCAAAAGAACACCGCGTTCCACCCGT
- binding result (androgen receptor (rAR) [1]): binds

B2: -499/-484 HRE (dsDNA)
DNA 1: ATCTAGAATAATTGGTATTAGAACAGGCTGCTTAAAACAGTTAA
DNA 2: TTAACTGTTTTAAGCAGCCTGTTCTAATACCAATTATTCTAGAT
- binding result (androgen receptor (rAR) [2]): no binding

B3: -159/-144 HRE (dsDNA)
DNA 1: GGGCTTGGCATGTTCTGTTAGCACTCTTTTAGATT
DNA 2: AATCTAAAAGAGTGCTAACAGAACATGCCAAGCCC
- binding result (androgen receptor (rAR) [2]): no binding
